Data: patent US20260028391A1 (HUMABS BIOMED, published 2026)

B1: RSD5-FR-GL-rIgG1 (antibody, V domains shown)
VH: QVQLVESGGGVVQPGRSLRLSCAASGFAFNNFAMHWVRQAPGKGLEWVAVVSYDGTSPYYADSVKGRFTISRDNSKNTLYLQMNSLRAEDTAVYYCARGLGSGSYSWIGYFYAMDVWGQGTTVTVSS
VL: QSALTQPASVSGSPGQSITISCTGTSSDVGGYVYVSWYQQHPGKAPKLMIYDVSNRPSGVSNRFSGSKSGNTASLTISGLQAEDEADYYCISYTDRNTVVFGGGTKLTVL
notes: Germline-reverted version of RSD5 (framework regions), recombinant IgG1; also called RSD5-FR-GL-rlgG1
B2: MPK190-v1.1-rIgG1m17,1-LS (antibody, V domains shown)
VH: QVQLVESGGGLVKPGGSLTLSCAASGFSISGYGMNWVRQAPGRGLEWVASISASSTYIYYADSMKGRFTISRDNGKTSLYLQMKSLRAEDTAVYYCARAPIEPPYFDLWGRGTLVTVSS
VL: QSVLTQPPSVSGAPGQRVTISCTGSNSNIGAGYDVHWYQHLPGKAPKVLIYGNNNRPSVVPDRFSGSNSGASASLAISGLQAEDEADYFCQSYDRRLSGPIFGGGTKLTVL
notes: also called MPK190-v1.1-rIgG1-LS
B3: MPK65-v2-v1.2 (antibody, V domains shown)
VH: QVPLVQSGAEVKKPGESLKISCKGSGYSFINYWIGWVRQMPGKGLEWMGVIYPFDSDTKYSPSFQGHVTISADKSSNTAYVQWSSLKASDTAMYYCARFTFGIAVVTDDVSGEGQAFEIWGQGTMVTVSS
VL: QIVMMQSPATLSVSPGERATLSCRASQSVAGNLAWYQQRPGQAPRLLIYGASTRATGVPARFSGSGSETEFTLTISSLQSEDFAVYYCHQYSNLPQAFGQGTRLDIK
B4: MPK201-v1.2 (antibody, V domains shown)
VH: EVQLVQSGAEVKKPGESLKISCQGSGYSFINYWIGWVRQKPGKGLEWMGIIYPFDSETKYSPSFQGHVTFSADKSINTAYVQWSSLRASDTAMYYCARFTFGLAVTTADVSGEGQAFEIWGQGTMVTVSS
VL: QIVMMQSPATLSVSPGERATLSCRASQSVAGNLAWYQQRPGQAPRLLVYGASTRASGVPARFSGSGSETEFTLTISSLQSEDFAVYYCHHYSDLPQAFGQGTRLDIK
B5: MPK201-v4.1 (antibody, V domains shown)
VH: QVQLVQSGAEVKKPGESLKISCQGSGYSFISYWIGWVRQKPGKGLEWMGIIYPFDSETKYSPSFQGHVTFSADKSINTAYVQWSSLRASDTAMYYCARFTFGLAVTTADVSGEGQAFEIWGQGTMVTVSS
VL: EIVMMQSPATLSVSPGERATLSCRASQSVAGNLAWYQQRPGQAPRLLVYGASTRASGVPARFSGSGSETEFTLTISSLQSEDFAVYYCHHYSDWPQAFGQGTRLDIK
B6: MPH12-v1 (VH C111/C112.2 variant of Tables 18 and 19) (antibody, V domains shown)
VH: QVQLVESGGGLVKPGGSLRLSCVASGFTFSGFYMKWIRQAPGKGLEWVSSISASGSYTNYADSVEGRFTVSRDNAKNSLFLLMSSLRAEDTAVYYCARGDSYSGASASHGEFFHKWGQGTLVTVSS
VL: QSVLTQPPSVSGAPGQRVTISCTGSDSNIGADFDVHWYQQLPGTAPKLLIYGNINRPSGVPDRFSGSRSGTSAFLAITRLQAEDEADYYCQSYDRSLHYVFGAGTKVTVL
B7: MPH12-v16 (VH-FRGL-S63A/VL-D25S) (antibody, V domains shown)
VH: QVQLVESGGGLVKPGGSLRLSCAASGFTFSGFYMKWIRQAPGKGLEWVSSISASGSYTNYADAVEGRFTISRDNAKNSLYLQMNSLRAEDTAVYYCARGDSYCGASACHGEFFHKWGQGTLVTVSS
VL: QSVLTQPPSVSGAPGQRVTISCTGSSSNIGADFDVHWYQQLPGTAPKLLIYGNINRPSGVPDRFSGSRSGTSAFLAITRLQAEDEADYYCQSYDRSLHYVFGAGTKVTVL
notes: also called MPH12 VH-FRGL-S63A / MPH12 VL-D25S
B8: MPH12-v28 (VH-FRGL-S63A/VL-S26A) (antibody, V domains shown)
VH: QVQLVESGGGLVKPGGSLRLSCAASGFTFSGFYMKWIRQAPGKGLEWVSSISASGSYTNYADAVEGRFTISRDNAKNSLYLQMNSLRAEDTAVYYCARGDSYCGASACHGEFFHKWGQGTLVTVSS
VL: QSVLTQPPSVSGAPGQRVTISCTGSDANIGADFDVHWYQQLPGTAPKLLIYGNINRPSGVPDRFSGSRSGTSAFLAITRLQAEDEADYYCQSYDRSLHYVFGAGTKVTVL
notes: also called MPH12 VH-FRGL-S63A / MPH12 VL-S26A
B9: MPH12-v2 (VH C111/C112.2 variant of Tables 18 and 19) (antibody, V domains shown)
VH: QVQLVESGGGLVKPGGSLRLSCVASGFTFSGFYMKWIRQAPGKGLEWVSSISASGSYTNYADSVEGRFTVSRDNAKNSLFLLMSSLRAEDTAVYYCARGDSYAGASAAHGEFFHKWGQGTLVTVSS
VL: QSVLTQPPSVSGAPGQRVTISCTGSDSNIGADFDVHWYQQLPGTAPKLLIYGNINRPSGVPDRFSGSRSGTSAFLAITRLQAEDEADYYCQSYDRSLHYVFGAGTKVTVL
B10: MPK176-v1.3 (antibody, V domains shown)
VH: QVQLVQSGAEVKKPGASVRVSCKASGYTLTAYGISWVRQAPGQGLEWMGWISPKHGNTHYAQRFQGRVTMTTDTSTSTAYMELRSLRPDDTAVYFCAREGVDIMAVPWYFDYWGQGTLVAVSS
VL: SYVLTQPPSVSVAPGQTARISCGGNNIGSKSVHWYQQKPGQAPVVVVYDDSKRPSGIPERFSGSNSGNTATLTISGVEAGDEADYFCQVWDSATDHWVFGGGTKLTVL

Legend:
[1] = biological target: fusion glycoprotein (F) of MPV A GFP (Tables 41 and 43) (metapneumovirus A); experiment: cell-based or functional assay
[2] = biological target: T1, biot-RSV-F wt (respiratory syncytial virus (RSV)); experiment: BLI (Octet), biotinylated F on SA sensors, mAb 5 µg/ml
[3] = biological target: fusion glycoprotein (F) of RSV B GFP (Tables 41 and 42) (respiratory syncytial virus B); experiment: cell-based or functional assay
[4] = biological target: fusion glycoprotein (F) of RSV A GFP (Tables 41 and 42) (respiratory syncytial virus A); experiment: cell-based or functional assay
[5] = biological target: RSV F expressed on transfected Expi293F cells (respiratory syncytial virus (RSV)); experiment: flow cytometry, transfected Expi293F cells, fixed and permeabilised
[6] = biological target: T1, biot-RSV-F wt; experiment: BLI, SA sensor loaded with biot-RSV-F wt, mAb 5 ug/ml, 4 min association, 6 min dissociation
[7] = biological target: T2, RSV F A S443P-K445N (RSV A, strain A2, UniProt P03420 26-574); experiment: FACS, % binding to RSV F A variants
T2 construct: whole, on cells

[8] = biological target: T3, RSV F A G446E (RSV A, strain A2, UniProt P03420 26-574); experiment: FACS, % binding to RSV F A variants
T3 construct: whole, on cells

[9] = biological target: T4, RSV F A, A2 Ref (RSV A, strain A2, UniProt P03420 26-574); experiment: FACS, % binding to RSV F A variants
T4 construct: whole, on cells

[10] = biological target: T5, RSV F A L203I (RSV A, strain A2, UniProt P03420 26-574); experiment: FACS, % binding to RSV F A variants
T5 construct: whole, on cells

[11] = biological target: RSV A fusion glycoprotein (F), virus of the neutralisation assays of Tables 54 and 57 (RSV A); experiment: cell-based or functional assay
[12] = biological target: T6, RSV-A F (RSV A); experiment: BLI
T6 construct: also called RSV F A

[13] = biological target: T7, RSV-B F (RSV B); experiment: BLI
T7 construct: also called RSV F B

[14] = biological target: T8, RSV F B S443P (RSV B); experiment: FACS, % binding to RSV F B variants
T8 construct: whole, on cells; also called mutant S443P

[15] = biological target: T9, RSV F B N208D (RSV B); experiment: FACS, % binding to RSV F B variants
T9 construct: whole, on cells

[16] = biological target: T10, RSV F B N208S (RSV B); experiment: FACS, % binding to RSV F B variants
T10 construct: whole, on cells; also called mutant N208S

[17] = biological target: T11, RSV F B K68N-N201S (RSV B); experiment: FACS, % binding to RSV F B variants
T11 construct: whole, on cells

[18] = biological target: T12, RSV F B K68N-N208S (RSV B); experiment: FACS, % binding to RSV F B variants
T12 construct: whole, on cells

[19] = biological target: T13, RSV F B N201S (RSV B); experiment: FACS, % binding to RSV F B variants
T13 construct: whole, on cells

[20] = biological target: T14, RSV F B, B Ref (RSV B); experiment: FACS, % binding to RSV F B variants
T14 construct: whole, on cells

[21] = biological target: DS-Cav1 RSV F (respiratory syncytial virus (RSV); …, UniProt P13843 26-513); experiment: ELISA on RSV-F Ds-Cav1, 1 ug/ml
[22] = biological target: fusion glycoprotein (F) of MPV A1/6621 (metapneumovirus A1/6621); experiment: cell-based or functional assay
[23] = biological target: T15, DS-Cav1 RSV F (respiratory syncytial virus); experiment: ELISA on DS-Cav1 RSV F
T15 construct: also called DC-VCav1

[24] = biological target: fusion glycoprotein (F) of the RSV used in the GFP-based neutralization assay of Table 23 (respiratory syncytial virus); experiment: cell-based or functional assay
[25] = biological target: fusion glycoprotein (F) of the MPV (non-D280N) used in the GFP-based neutralization assay of Table 23 (metapneumovirus); experiment: cell-based or functional assay
[26] = biological target: RSV fusion glycoprotein (RSV-F) (respiratory syncytial virus); experiment: biolayer interferometry (BLI), rIgG1 with M428L/N434S
[27] = biological target: T16, MPV fusion glycoprotein without the D280N mutation (MPV-F D280) (metapneumovirus); experiment: as above
T16 construct: also called MPV F Non-D280N; MPV-F wt

[28] = biological target: T17, MPV fusion glycoprotein with the D280N mutation (MPV-F N280) (metapneumovirus); experiment: as above
T17 construct: also called MPV F D280N; MPV-F D280N

| Binder | % binding [7] [%] | % binding [8] [%] | % binding [9] [%] | % binding [10] [%] | IC50, neutralization of RSVA [11] [ng/mL] | Kd [12] [pM] | Kd [13] [pM] | % binding [14] [%] | % binding [15] [%] | % binding [16] [%] | % binding [17] [%] | % binding [18] [%] | % binding [19] [%] | % binding [20] [%] | further results |
| --- | --- | --- | --- | --- | --- | --- | --- | --- | --- | --- | --- | --- | --- | --- | --- |
| B1 | – | – | – | – | – | – | – | – | – | – | – | – | – | – | IC50 (ng/ml), MPV A GFP neutralization [1]: > 2000 ng/mL; Kd [2]: 1460 pM; IC50 (ng/ml), RSV B GFP neutralization [3]: 1.14 ng/mL; IC50 (ng/ml), RSV A GFP neutralization [4]: 1.27 ng/mL |
| B2 | – | – | – | – | – | – | – | – | – | – | – | – | – | – | Binding (FACS) relative to parental mAb MPK190-v1.1 [5]: 1; IC50 (ng/ml), MPV A GFP neutralization [1]: 4.03 ng/mL; Kd [6]: < 1 pM; Kd [2]: < 1 pM; IC50 (ng/ml), RSV B GFP neutralization [3]: 3.39 ng/mL; IC50 (ng/ml), RSV A GFP neutralization [4]: 3.54 ng/mL |
| B3 | 33.5 | 25.4 | 56 | 18 | 4.38 | 205 | 581 | 33.8 | 0.47 | 0.041 | 30.8 | 0.047 | 35.9 | 56.4 | – |
| B4 | 36 | 29 | 66.9 | 40 | 2.88 | 211 | 161 | 45.8 | 0.015 | 14.4 | 47.3 | 12.1 | 47.7 | 61.3 | – |
| B5 | 2700 | 18 | 54.1 | 13.1 | 4.35 | 292 | 552 | 31.5 | 0.018 | 0.016 | 30 | 0.048 | 33 | 51.9 | – |
| B6 | – | – | – | – | – | – | – | – | – | – | – | – | – | – | EC50 (read off the curve) [21]: ~100 ng/mL; MPV IC50 (nM), neutralization of MPV A1/6621 [22]: 5.87 nM |
| B7 | – | – | – | – | – | – | – | – | – | – | – | – | – | – | EC50 [23]: 15.6 ng/mL; RSV IC 50 (ng/mL), GFP-based in vitro neutralization [24]: 50.3 ng/mL; MPV IC50 (ng/mL), GFP-based in vitro neutralization [25]: 26.8 ng/mL; Kd [26]: 410 pM; Kd [27]: 38 pM; Kd [28]: 540 pM |
| B8 | – | – | – | – | – | – | – | – | – | – | – | – | – | – | EC50 [23]: 32.2 ng/mL; RSV IC 50 (ng/mL), GFP-based in vitro neutralization [24]: 59.4 ng/mL; MPV IC50 (ng/mL), GFP-based in vitro neutralization [25]: 26.3 ng/mL; Kd [26]: 380 pM; Kd [27]: 45 pM; Kd [28]: 740 pM |
| B9 | – | – | – | – | – | – | – | – | – | – | – | – | – | – | EC50 (read off the curve) [21]: ~100 ng/mL; MPV IC50 (nM), neutralization of MPV A1/6621 [22]: 0.552 nM |
| B10 | 0.036 | 0.017 | 78.1 | 56.1 | 3.94 | 136 | 25.6 | 33.8 | 53.6 | 60.4 | 60 | 57.9 | 60.2 | 39.9 | – |
